This series concerns the molecule itself. The series can be described thus: SEC; HiLoad 16/60 Superdex 200 pg column in 1X PBS, after Ni-NTA. On the technique in general: SEC sorts molecules by how far they enter the pores of the column.

B1: Schmallenberg virus nucleoprotein (natural protein)
chain: MSSQFIFEDVPQRNAATFNPEVGYVAFIGKYGQQLNFGVARVFFLNQKKAKMVLHKTAQPSVDLTFGGVKFTVVNNHFPQYVSNPVPDNAITLHRMSGYLARWIADTCKASVLKLAEASAQIVMPLAEVKGCTWADGYTMYLGFAPGAEMFLDAFDFYPLVIEMHRVLKDNMDVNFMKKVLRQRYGTMTAEEWMTQKITEIKAAFNSVGQLAWAKSGFSPAARTFLQQFGINI
notes: Nucleoprotein (N) of Schmallenberg virus, encoded on the S segment; cDNA ligated through AgeI/XhoI into pET-28M-SUMO3 in place of GFP; also called SBV-N; SBV N; source: E. coli BL21, purified (Ni-NTA, SEC)
Consider B1, for which the binding result is given as “binds”.
